Results from the supplement of paper PMC10567573.

B1: SNAP91 (parent)
chain: FAQPMMRPPFGAAAVPGTQLSPSP
B2: ZC3H15 (parent)
chain: ENLFTGEDLDELEEELNTLDLEE

Variants of: B1
Assay: protein stability index of a GFP-peptide fusion (GPS, HEK-293T) (PSI 1-6); higher = more stable
Conditions: c terminus: a fixed tail appended
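Also: lentivirally expressed fusions sorted by FACS into six bins by GFP to DsRed ratio, PSI derived from sequencing read proportions per bin multiplied by bin number.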

Protein stability index of substitutions, site by site:
A2: D 4.69; C 2.73; E 4.45
F1: I 4.02; V 4.42; R 4.19; A 4.67; K 4.28; H 4.02; Y 2.24; E 4.68; N 4.53; W 3.41; T 4.53; Q 4.66; M 4.26; S 4.11; C 3.3; L 3.59; G 4.5; P 4.75; D 4.55

Variants of: B2
Assay: as above
Conditions: c terminus: native

Protein stability index: each site, then its substitutions
N17: Q 4.06; E 4.89; F 2.5; C 3.64; I 3.3; D 4.65; Y 3.79; K 5.18; T 3.66; H 3.71; M 3.5; A 4.7; W 2.69; R 5.04; V 3.5; S 4.45
F4: W 4.5; Y 4.6; V 3.57
E15: L 3.29; H 4.29; G 5.2; D 3.74; N 4.61; K 5.54; P 3.14; F 3.37; Q 4.93; A 4.94; W 4.08; I 4.04; T 5.01; V 3.09; R 5.29; Y 3.4; S 5.18; M 3.88
E13: N 5.1; P 3.56; S 5.36; R 4.37; V 4.83; K 4; W 3.48; H 3.82; A 5.59; Y 4.11; G 3.77; F 3.81; C 5.19; T 4.6; Q 5.06; I 4.51; L 4.44; D 4.46
D20: Y 5.22; A 4.55; G 5.35; H 4.87; K 5.11; M 3.71; E 4.52; R 5.48; S 5.25; P 3.12; W 4.2; C 5.38; N 4.67; T 5.39; F 4.85; V 4.99
D10: K 4.35; V 5.1; N 5.33; L 4.28; I 4.73; M 3.89; G 4.73; E 5.05; F 4.12; Y 3.33; A 5.27; H 4.89; W 4.02; R 5.07; P 5; Q 4.89
L12: Q 3.69; C 4.9; R 3.52; Y 1.93; K 4.01; G 4.72; A 3.23; N 4.38; E 4.79; P 4.82; F 3.84; S 4.59; I 4.14; D 5.07; M 3.43
T18: Q 5.2; V 3.58; A 4.22; H 4.81; L 4.96; S 5.05; P 2.54; K 5.53; C 4.8; W 3.31; D 4.24; R 4.26; N 5.31
E11: A 3.93; N 4.58; S 4.93; C 4.52; K 4.83; F 3.64; D 4.58; H 4.58; R 4.98; I 4.71; V 4.1; T 4.9; Q 4.89; M 4.25; L 4.3; G 5.13; P 4.06; W 4.67
L21: H 3.31; E 4.73; V 2.59; D 4.99; N 1.1; Q 4.88; G 4.82; R 3.48; S 2.58; C 2.13; A 2.44; Y 3.62; T 2.68; I 2.25; F 3.33; K 2.71
T5: E 4.65; H 4.56; W 4.51; M 4.69; F 4.19; S 4.32; N 4.41; V 3.27; Y 4.25; C 5.08; P 4.66; G 4.5; I 4.05
E14: V 3.65; C 3.99; K 5.14; T 4.12; M 3.55; D 4.74; H 5.05; W 3.7; A 5.01; F 2.95; N 4.37; G 3.47; Q 4.56; I 3.3; P 3.42; Y 4.33; S 4.85
E22: M 5.37; I 5.44; V 5.55; R 5.7; F 5.82; D 5.75; N 5.37; A 5.34; C 5.58; T 5.41; W 5.39; H 5.94; L 5.79; S 5.84; Y 5.5; G 5.33; Q 5.67; P 5.17; K 5.67
L16: V 4.22; S 3.82; W 2.9; M 4.78; F 4.87; P 3.32; A 3.48; Q 2.69; R 3.77; H 4.2; G 4.11; T 4.77; K 3.62; E 3.7; N 4.12
L9: G 4.03; Q 3.82; D 3.87; M 4.69; E 4.54; F 3.48; V 4.68; T 4; W 3.09; P 4.55; N 4.1; C 4.43; H 3.51; Y 2.68; R 3.18; K 2.38; S 4.49; A 4.25; I 5
E23: Q 4.97; I 5.81; P 5.67; F 5.07; G 5.05; W 5.54; H 5.42; K 5.61; R 3.26; D 5.47; A 5.96; M 4.61; S 5.89; L 5.73; N 5.51; V 5.29; Y 5.58
D8: R 5.05; L 4.72; H 4.66; S 5.14; I 4.13; Q 4.58; P 4.24; G 5.03; K 4.39; V 4.83; W 4.09; T 4.25; E 4.58; N 3.93; C 4.99
G6: V 4.28; Q 4.41; L 4.85; N 4.83; I 4.2; A 4.82; D 4.93; F 4.3; R 4.51; Y 4.58; T 4.81; K 4.79; H 4.37; S 4.88; M 4.68
E7: R 4.69; N 4.68; K 4.01; P 4.16; Y 4.23; M 4.69; V 3.99; H 4.66; I 4.49; F 4.42; S 5; L 3.98; Q 4.11; C 4.38; A 4.55; W 4.54; D 4.93
L19: D 5.17; V 3.86; Q 4.27; E 5.17; Y 1.99; T 4.7; F 2.97; K 4.95; S 4.91; A 4.58; G 4.69; H 3.85; P 4.67; I 3.98; W 1.11; N 4.52
